Some targets named below: hCD32a-R131 (human) (UniProt P12318); hCD16a-V158 (human) (UniProt P08637); hCD32b (human) (UniProt P31994); hCD32a-H131 (human) (UniProt P12318); hCD64 (human) (UniProt P12314); hCD16a-F158 (human) (UniProt P08637).
What all share (assay): FcγR binding, SPR (method per paragraph 74)
The target of experiment [1] is cyCD64 (cynomolgus monkey).
Experiment [2] deals with cyCD16 (cynomolgus monkey) (UniProt Q8SPW2).
In experiment [3] the target is cyCD32b (cynomolgus monkey).
Experiment [4] deals with cyCD32a (cynomolgus monkey).

Our source for the Kd and fold weaker binding than wild-type human IgG1 control values is patent US20230331860A1.

pKd: −log10 of the molar value.

Chain of BMS-986325 (antibody) (heavy): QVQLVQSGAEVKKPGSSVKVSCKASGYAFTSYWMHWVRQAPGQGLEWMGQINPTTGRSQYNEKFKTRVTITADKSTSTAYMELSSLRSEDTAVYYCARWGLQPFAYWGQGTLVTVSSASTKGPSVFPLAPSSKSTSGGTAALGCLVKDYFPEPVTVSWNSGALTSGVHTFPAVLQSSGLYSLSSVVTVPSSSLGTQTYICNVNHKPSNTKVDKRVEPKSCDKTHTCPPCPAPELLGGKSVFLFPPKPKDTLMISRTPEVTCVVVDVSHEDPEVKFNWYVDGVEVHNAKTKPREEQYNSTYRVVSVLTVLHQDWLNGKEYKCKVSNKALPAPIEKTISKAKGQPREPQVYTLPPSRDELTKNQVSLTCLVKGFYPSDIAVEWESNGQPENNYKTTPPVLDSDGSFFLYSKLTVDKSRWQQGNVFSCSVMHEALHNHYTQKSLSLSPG
Chain of BMS-986325 (antibody) (light): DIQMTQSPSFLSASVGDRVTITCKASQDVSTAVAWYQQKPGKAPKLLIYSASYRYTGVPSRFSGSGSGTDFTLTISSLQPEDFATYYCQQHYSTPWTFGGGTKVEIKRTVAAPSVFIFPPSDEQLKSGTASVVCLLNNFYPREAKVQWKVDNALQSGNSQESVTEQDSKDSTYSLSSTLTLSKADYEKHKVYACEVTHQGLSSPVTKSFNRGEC
Chain of hCD32a-R131 (human) (P12318 36-218 H167R limits assumed): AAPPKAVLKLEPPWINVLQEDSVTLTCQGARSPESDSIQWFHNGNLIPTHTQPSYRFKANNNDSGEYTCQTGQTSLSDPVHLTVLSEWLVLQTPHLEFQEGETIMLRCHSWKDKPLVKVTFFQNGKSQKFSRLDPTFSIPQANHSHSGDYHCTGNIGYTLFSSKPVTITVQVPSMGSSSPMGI
Chain of hCD16a-V158 (human) (P08637 17-208 F176V limits assumed): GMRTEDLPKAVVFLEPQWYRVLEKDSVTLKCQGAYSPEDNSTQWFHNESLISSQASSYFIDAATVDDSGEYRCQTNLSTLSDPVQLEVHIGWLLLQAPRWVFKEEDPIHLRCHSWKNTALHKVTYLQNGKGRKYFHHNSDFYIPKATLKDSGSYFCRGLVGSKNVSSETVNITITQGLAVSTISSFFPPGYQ
Chain of cyCD16 (cynomolgus monkey) (Q8SPW2 17-208 limits assumed): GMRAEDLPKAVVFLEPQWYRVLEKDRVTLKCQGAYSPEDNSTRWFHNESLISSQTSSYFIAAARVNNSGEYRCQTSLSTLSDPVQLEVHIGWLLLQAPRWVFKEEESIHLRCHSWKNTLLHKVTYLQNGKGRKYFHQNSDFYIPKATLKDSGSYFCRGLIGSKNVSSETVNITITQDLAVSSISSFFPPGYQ
Chain of hCD32a-H131 (human) (P12318 36-218 limits assumed): as the sequence (P12318 36-218 H167R limits assumed) above, with R132H counted along it
Chain of hCD32b (human) (P31994 43-217 limits assumed): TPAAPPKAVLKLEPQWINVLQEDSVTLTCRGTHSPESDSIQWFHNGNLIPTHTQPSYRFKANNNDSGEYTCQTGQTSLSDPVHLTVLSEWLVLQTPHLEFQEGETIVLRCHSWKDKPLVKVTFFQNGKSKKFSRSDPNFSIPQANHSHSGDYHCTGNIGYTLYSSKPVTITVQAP
Chain of hCD64 (human) (P12314 16-288 limits assumed): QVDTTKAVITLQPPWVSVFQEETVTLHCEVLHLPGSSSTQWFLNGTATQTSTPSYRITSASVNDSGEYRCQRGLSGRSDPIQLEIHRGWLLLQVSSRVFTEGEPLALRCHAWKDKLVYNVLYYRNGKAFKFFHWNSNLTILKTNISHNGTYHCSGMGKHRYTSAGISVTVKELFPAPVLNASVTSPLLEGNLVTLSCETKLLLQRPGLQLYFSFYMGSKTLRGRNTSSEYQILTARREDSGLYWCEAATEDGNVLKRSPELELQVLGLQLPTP
Chain of hCD16a-F158 (human) (P08637 17-208 limits assumed): as the sequence (P08637 17-208 F176V limits assumed) above, with V160F counted along it

In [1], BMS-986325 (antibody) had a pKd of 7.89 and a fold weaker binding than wild-type human IgG1 control of 100 fold.
With wild-type human IgG1 control (antibody), the pKd with hCD32a-R131 (human) was 6.18; with hCD16a-V158 (human) it was 6.92; in experiment [1], above 10.00; with hCD32b (human), 5.51; with hCD32a-H131 (human) it was 6.35; in experiment [2], 6.79. Further, the pKd with hCD64 (human) is above 10.00; with hCD16a-F158 (human), 5.35; in [3] it was 6.06; in [4] it was 5.82.

Broadly, the pKd is the Kd on a negative log10 scale, so that one unit is a factor of ten. Lower therefore signals a large Kd.
